Reference: paper PMC12756002, “Mutations in Hsp40 co-chaperone change the canonical interdomain interactions stimulating LGMDD1 myopathy” (The Journal of Biological Chemistry, 2025)

B3: Ssa1-WT (natural protein)
chain: not shown
notes: Ssa1, yeast Hsp70; Cloned into pPROEx-Htb; cleavage of the tag follows from 'the remaining purification steps were analogous to those for Sis1-WT'; also called Hsp70; source: E. coli Rosetta 2(DE3), purified (Talon resin, steps analogous to Sis1)

Legend:
Settings in all cases: both partners purified
Ssa1-WT = target: B3; experiment: ELISA; Ssa1 (200 nM) immobilised in microtiter wells; dilutions of Sis1-WT or mutants (0-50 nM); bound Sis1 detected with an anti-Sis1 antibody; no client
Chain of Ssa1-WT (P10591 whole entry): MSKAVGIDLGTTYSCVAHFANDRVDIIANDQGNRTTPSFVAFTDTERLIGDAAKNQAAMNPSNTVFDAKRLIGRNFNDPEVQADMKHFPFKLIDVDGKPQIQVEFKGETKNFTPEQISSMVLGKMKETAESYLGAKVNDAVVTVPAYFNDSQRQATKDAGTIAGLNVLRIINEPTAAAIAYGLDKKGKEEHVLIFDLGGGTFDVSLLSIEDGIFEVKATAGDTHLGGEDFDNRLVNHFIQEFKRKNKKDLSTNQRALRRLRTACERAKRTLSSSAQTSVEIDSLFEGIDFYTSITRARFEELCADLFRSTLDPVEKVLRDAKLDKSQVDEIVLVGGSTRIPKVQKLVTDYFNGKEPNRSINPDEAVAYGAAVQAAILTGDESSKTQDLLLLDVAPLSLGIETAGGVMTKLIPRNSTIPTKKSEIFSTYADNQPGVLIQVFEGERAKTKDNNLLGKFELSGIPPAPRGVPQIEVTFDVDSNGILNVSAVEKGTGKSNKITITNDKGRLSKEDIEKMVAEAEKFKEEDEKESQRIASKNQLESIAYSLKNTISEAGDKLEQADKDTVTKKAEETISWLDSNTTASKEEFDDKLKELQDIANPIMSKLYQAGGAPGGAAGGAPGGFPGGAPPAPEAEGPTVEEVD

full-length Rnq1 = target: T1, full-length Rnq1 (yeast, UniProt P25367 1-405); experiment: ELISA; denatured substrate (FL Rnq1 or ΔN Rnq1 400 ng, luciferase 100 ng) immobilised in microtiter wells; dilutions of Sis1-WT or mutants (0-20 or 0-25 nM) in PBS-T with 0.5% BSA, overnight at room temperature; retained Sis1 detected with an anti-Sis1 antibody
T1 construct: also called FL Rnq1; Rnq1-WT
T1 sequence (looked up): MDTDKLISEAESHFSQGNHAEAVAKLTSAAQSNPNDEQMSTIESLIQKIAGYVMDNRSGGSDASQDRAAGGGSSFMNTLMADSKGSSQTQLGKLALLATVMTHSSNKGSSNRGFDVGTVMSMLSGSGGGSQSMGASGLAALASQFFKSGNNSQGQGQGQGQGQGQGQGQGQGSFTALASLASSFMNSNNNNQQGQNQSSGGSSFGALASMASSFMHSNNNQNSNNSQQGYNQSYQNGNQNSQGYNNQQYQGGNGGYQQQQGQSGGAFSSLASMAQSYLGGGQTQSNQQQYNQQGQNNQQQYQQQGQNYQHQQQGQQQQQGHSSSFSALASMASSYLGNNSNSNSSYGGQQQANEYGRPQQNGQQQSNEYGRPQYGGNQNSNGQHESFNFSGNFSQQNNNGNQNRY

[1] = target: T2, Sis1-FLRnq1 complex (Sis1-WT premixed with denatured Rnq1) (yeast, UniProt P25294 1-352; P25367 1-405); experiment: ELISA; denatured Rnq1 premixed with Sis1-WT or mutants (5 nM), 1 h room temperature, adsorbed onto wells; dilutions of Ssa1-WT (0-20 nM); bound Ssa1 detected with an anti-Ssa1 (Hsp70) antibody
T2 construct: also called Sis1-WT with client protein Rnq1
T2 sequence (looked up) 1: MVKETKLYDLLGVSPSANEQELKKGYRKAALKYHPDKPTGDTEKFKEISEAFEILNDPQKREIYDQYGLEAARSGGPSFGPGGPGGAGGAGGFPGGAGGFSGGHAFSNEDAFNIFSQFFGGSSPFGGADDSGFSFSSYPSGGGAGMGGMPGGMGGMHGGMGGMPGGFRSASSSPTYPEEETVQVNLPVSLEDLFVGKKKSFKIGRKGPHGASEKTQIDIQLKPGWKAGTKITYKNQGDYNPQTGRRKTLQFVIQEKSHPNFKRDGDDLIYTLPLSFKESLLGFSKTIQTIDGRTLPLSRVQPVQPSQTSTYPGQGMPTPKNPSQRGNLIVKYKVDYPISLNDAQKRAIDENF
T2 sequence (looked up) 2: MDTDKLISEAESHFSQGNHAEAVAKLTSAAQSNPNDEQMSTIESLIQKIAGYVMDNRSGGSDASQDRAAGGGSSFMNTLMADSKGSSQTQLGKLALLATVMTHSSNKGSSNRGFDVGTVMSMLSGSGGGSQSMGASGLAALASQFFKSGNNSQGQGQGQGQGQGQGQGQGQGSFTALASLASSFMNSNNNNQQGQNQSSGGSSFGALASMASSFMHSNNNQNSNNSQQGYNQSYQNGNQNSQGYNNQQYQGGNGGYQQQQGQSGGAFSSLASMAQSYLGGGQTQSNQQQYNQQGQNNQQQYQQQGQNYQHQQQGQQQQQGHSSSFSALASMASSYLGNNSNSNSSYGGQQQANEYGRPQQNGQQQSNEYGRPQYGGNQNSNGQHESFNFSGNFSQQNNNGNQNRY

[2] = target: T3, Sis1-E53A premixed with denatured Rnq1 (yeast, UniProt P25294 1-352; P25367 1-405, E53A); experiment: as above
T3 construct: also called Sis1-FLRnq1 complex (E53A)
T3 sequence (looked up) 1: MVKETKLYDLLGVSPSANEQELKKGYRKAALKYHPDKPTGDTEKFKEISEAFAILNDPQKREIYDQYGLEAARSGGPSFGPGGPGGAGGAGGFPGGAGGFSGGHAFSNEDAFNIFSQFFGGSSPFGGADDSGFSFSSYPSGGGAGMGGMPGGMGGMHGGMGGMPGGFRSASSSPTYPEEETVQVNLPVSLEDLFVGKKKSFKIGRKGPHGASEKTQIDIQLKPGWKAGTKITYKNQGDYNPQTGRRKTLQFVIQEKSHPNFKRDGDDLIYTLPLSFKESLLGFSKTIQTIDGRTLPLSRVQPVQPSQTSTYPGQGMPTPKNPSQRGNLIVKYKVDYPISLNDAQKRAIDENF
T3 sequence (looked up) 2: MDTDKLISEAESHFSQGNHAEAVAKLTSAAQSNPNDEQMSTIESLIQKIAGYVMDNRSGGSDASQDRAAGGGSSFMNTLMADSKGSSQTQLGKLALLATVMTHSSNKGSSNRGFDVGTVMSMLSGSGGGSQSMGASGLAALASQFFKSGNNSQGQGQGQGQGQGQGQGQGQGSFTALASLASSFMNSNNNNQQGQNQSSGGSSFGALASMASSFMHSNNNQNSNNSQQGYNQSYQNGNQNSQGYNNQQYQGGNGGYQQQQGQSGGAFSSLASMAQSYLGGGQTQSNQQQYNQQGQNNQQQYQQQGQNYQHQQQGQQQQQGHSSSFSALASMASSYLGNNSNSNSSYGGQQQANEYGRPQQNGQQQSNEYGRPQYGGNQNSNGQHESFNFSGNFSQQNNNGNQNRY

[3] = target: T4, Sis1-N56L premixed with denatured Rnq1 (yeast, UniProt P25294 1-352; P25367 1-405, N56L); experiment: as above
T4 construct: also called Sis1-FLRnq1 complex (N56L)
T4 sequence (looked up) 1: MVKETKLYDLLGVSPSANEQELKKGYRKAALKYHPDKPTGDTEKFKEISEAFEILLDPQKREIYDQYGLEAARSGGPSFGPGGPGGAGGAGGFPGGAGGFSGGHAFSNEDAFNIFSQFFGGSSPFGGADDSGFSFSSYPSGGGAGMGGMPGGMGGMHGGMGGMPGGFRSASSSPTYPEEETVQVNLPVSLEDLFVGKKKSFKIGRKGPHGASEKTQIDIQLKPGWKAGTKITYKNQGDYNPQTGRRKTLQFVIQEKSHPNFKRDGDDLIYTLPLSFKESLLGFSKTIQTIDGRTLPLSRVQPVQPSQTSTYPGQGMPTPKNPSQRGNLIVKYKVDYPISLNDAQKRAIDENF
T4 sequence (looked up) 2: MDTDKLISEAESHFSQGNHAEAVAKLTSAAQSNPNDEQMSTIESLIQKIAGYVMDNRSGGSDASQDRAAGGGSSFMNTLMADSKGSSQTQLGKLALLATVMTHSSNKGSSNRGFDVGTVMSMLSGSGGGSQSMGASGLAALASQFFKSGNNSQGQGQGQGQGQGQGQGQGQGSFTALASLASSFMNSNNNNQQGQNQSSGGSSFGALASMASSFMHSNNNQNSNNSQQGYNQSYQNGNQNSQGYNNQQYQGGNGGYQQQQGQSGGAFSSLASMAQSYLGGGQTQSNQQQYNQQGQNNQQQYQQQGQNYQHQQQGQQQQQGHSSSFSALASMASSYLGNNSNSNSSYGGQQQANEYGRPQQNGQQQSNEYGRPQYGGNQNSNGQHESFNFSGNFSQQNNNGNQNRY

[4] = target: T5, Sis1-E53K premixed with denatured Rnq1 (yeast, UniProt P25294 1-352; P25367 1-405, E53K); experiment: as above
T5 construct: also called Sis1-FLRnq1 complex (E53K)
T5 sequence (looked up) 1: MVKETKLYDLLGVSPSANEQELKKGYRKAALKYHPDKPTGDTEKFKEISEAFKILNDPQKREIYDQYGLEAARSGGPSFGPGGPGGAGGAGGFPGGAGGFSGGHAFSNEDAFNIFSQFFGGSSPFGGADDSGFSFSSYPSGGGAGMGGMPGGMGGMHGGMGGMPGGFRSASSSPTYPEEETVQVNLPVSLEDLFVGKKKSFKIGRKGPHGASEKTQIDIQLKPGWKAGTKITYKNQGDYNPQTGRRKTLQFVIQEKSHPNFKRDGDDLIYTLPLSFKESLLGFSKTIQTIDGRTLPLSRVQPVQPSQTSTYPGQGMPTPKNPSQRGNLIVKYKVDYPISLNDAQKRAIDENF
T5 sequence (looked up) 2: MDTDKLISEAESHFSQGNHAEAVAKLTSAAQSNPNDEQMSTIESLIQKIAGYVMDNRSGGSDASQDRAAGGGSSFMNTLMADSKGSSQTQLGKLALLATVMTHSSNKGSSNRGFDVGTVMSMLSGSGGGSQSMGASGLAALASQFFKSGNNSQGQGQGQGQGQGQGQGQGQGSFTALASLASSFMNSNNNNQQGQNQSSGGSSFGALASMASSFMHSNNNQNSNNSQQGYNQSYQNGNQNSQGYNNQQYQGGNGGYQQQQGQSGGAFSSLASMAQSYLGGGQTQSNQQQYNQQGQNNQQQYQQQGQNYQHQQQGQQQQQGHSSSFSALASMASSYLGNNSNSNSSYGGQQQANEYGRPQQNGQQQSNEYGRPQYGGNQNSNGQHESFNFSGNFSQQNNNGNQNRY

[5] = target: T6, Sis1-S49V premixed with denatured Rnq1 (yeast, UniProt P25294 1-352; P25367 1-405, S49V); experiment: as above
T6 construct: also called Sis1-FLRnq1 complex (S49V)
T6 sequence (looked up) 1: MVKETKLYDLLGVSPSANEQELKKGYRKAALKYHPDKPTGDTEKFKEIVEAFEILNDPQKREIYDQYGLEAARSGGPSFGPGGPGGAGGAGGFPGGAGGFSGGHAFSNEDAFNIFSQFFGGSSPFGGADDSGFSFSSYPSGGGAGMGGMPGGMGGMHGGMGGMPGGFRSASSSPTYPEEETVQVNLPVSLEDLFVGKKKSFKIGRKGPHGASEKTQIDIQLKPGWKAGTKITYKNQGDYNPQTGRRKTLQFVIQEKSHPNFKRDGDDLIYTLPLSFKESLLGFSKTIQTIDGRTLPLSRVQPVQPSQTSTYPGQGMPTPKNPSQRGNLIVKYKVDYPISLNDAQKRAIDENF
T6 sequence (looked up) 2: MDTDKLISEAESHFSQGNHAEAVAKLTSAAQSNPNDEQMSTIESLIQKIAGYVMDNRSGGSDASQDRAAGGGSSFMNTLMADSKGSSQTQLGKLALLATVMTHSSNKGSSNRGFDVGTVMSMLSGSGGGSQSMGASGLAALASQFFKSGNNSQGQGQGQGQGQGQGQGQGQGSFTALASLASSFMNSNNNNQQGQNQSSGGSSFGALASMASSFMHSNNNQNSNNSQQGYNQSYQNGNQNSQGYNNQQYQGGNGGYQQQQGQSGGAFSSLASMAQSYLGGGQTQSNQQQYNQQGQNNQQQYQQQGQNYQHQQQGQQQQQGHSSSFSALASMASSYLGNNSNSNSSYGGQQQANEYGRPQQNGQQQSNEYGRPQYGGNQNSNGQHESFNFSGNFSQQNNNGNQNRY

Measured: binding result

B1: Sis1-E53K (natural protein, yeast, UniProt P25294 1-352, looked up)
chain: MVKETKLYDLLGVSPSANEQELKKGYRKAALKYHPDKPTGDTEKFKEISEAFKILNDPQKREIYDQYGLEAARSGGPSFGPGGPGGAGGAGGFPGGAGGFSGGHAFSNEDAFNIFSQFFGGSSPFGGADDSGFSFSSYPSGGGAGMGGMPGGMGGMHGGMGGMPGGFRSASSSPTYPEEETVQVNLPVSLEDLFVGKKKSFKIGRKGPHGASEKTQIDIQLKPGWKAGTKITYKNQGDYNPQTGRRKTLQFVIQEKSHPNFKRDGDDLIYTLPLSFKESLLGFSKTIQTIDGRTLPLSRVQPVQPSQTSTYPGQGMPTPKNPSQRGNLIVKYKVDYPISLNDAQKRAIDENF
notes: Sis1, essential yeast DNAJ (Hsp40) protein, with the J-domain mutation E53K; also called homologous to DNAJB6-E54K; LGMDD1 J-domain mutant; source: E. coli Lemo21(DE3), purified (Talon cobalt resin, TEV cleavage, second Talon pass)
binds: Ssa1-WT | full-length Rnq1

B2: Sis1-S49V (natural protein, yeast, UniProt P25294 1-352, looked up)
chain: MVKETKLYDLLGVSPSANEQELKKGYRKAALKYHPDKPTGDTEKFKEIVEAFEILNDPQKREIYDQYGLEAARSGGPSFGPGGPGGAGGAGGFPGGAGGFSGGHAFSNEDAFNIFSQFFGGSSPFGGADDSGFSFSSYPSGGGAGMGGMPGGMGGMHGGMGGMPGGFRSASSSPTYPEEETVQVNLPVSLEDLFVGKKKSFKIGRKGPHGASEKTQIDIQLKPGWKAGTKITYKNQGDYNPQTGRRKTLQFVIQEKSHPNFKRDGDDLIYTLPLSFKESLLGFSKTIQTIDGRTLPLSRVQPVQPSQTSTYPGQGMPTPKNPSQRGNLIVKYKVDYPISLNDAQKRAIDENF
notes: Sis1, essential yeast DNAJ (Hsp40) protein, with the J-domain mutation S49V; also called homologous to DNAJB6-A50V; LGMDD1 J-domain mutant; source: E. coli Lemo21(DE3), purified (Talon cobalt resin, TEV cleavage, second Talon pass)
binds: Ssa1-WT | full-length Rnq1

B3
not listed: Ssa1-WT | full-length Rnq1
binds: all other assays above
